The values below come from paper PMC7327498, “Structural basis of semaphorin‐plexin cis interaction” (The EMBO Journal, 2020).

Test [1] deals with PlexA_(ecto) (Drosophila melanogaster) (UniProt Q9V491). Put plainly: AUC; sedimentation velocity, 15 mM HEPES pH 7.4, 150 mM NaCl, 40,000 rpm; PlexA1‐4 at 33 μM, PlexA_(ecto) at 2.2 μM.
The next test deals with T1, PlexA1‐4‐mVenus (Drosophila melanogaster, UniProt Q9V491 28-730).
T1 construct: Plexin A (PlexA), Drosophila melanogaster, domains 1-4, residues 28–730; monoVenus follows PlexA1-4 and is followed by the His6 tag; source: HEK 293T, transient transfection, purified (HisTrap, SEC); not shown: mVenus, C-terminal, kept
T1 sequence (looked up): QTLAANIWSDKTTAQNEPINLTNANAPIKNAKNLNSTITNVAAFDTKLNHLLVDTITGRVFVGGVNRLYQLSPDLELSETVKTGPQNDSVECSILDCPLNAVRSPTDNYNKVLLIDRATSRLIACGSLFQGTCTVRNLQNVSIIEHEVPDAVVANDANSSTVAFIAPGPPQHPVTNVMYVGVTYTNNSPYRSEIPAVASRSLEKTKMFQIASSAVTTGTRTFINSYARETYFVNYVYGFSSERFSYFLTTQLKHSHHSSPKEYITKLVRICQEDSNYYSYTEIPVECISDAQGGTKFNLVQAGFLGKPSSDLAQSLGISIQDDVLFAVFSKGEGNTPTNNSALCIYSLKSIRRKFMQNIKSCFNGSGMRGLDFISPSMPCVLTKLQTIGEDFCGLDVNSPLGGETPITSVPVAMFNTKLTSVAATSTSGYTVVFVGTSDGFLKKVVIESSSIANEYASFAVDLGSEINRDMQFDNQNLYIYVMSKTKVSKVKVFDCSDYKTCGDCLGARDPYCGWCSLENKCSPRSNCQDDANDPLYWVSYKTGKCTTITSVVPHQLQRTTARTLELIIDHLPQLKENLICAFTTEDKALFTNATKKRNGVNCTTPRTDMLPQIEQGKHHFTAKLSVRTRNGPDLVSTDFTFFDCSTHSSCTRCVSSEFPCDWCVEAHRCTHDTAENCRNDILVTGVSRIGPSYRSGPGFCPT
Put plainly: MST; fluorescent PlexA1‐4‐mVenus kept constant, unlabelled Sema1b_(ecto) or mutants titrated; 28°C, 15 mM HEPES pH 7.4, 150 mM NaCl, 2 mM CaCl2, 0.05% Tween‐20; 80% MST power. To be noted: both partners purified.

The target in a further test is T2, PlexA1‐4 (Drosophila melanogaster, UniProt Q9V491 28-730).
T2 construct: Plexin A (PlexA), Drosophila melanogaster, domains 1-4 (sema, PSI1, IPT1, PSI2), residues 28–730; also called PlexA domains 1-4; source: HEK 293T, transient transfection, purified (HisTrap, SEC); for crystallisation made with kifunensine, not deglycosylated
T2 sequence (looked up): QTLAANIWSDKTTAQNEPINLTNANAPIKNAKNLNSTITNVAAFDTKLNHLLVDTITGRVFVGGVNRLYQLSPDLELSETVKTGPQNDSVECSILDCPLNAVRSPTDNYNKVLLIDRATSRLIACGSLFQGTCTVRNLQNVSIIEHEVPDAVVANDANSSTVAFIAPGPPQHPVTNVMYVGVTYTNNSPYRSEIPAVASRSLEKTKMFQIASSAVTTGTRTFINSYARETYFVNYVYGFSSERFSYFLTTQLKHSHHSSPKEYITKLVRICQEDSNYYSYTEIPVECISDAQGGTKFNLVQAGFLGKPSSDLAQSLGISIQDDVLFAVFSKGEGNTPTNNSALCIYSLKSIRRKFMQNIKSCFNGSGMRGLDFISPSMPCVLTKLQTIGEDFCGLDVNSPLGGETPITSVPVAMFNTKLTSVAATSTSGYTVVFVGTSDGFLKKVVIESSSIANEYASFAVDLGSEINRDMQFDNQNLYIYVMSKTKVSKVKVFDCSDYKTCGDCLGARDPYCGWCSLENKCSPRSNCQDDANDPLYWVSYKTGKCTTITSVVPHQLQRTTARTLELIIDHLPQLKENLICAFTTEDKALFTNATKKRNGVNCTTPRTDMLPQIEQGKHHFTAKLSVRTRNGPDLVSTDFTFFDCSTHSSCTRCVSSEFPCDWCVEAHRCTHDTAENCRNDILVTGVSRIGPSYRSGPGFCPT
Put plainly: SEC-MALS; Superdex 200 10/300, 15 mM HEPES pH 7.8, 150 mM NaCl; single proteins injected at 2.0, 1.0 and 0.5 mg/ml; equimolar mixture of Sema1b1‐2 and PlexA1‐4. The conditions noted are these: both partners purified. (In general: In gel filtration, larger molecules generally elute earlier.)

“PlexA_(ecto) (from UniProt Q9V491 28-1272) (domain or fragment)”: the stoichiometry N in test [1] is under 4.

B1: Sema1b_(ecto)‐mutB (domain or fragment, Drosophila melanogaster, UniProt Q7KK54 37-659, looked up)
chain: DVKPDLQTKQDKVLAHFIGNSTDYFKILDHNDEFVLVGAKDVIYNVSLNGLKEIARLEWHSTDADRELCALKGKHEWDCHNYLRVYALRPNGEVLLCGTNSYKPRCRHYTPVEVSSEEAGSAGHAHAMRYEVSRDVEAQGLCPYSPAHNSTYAFADGHLYSATVADFSGGDPLIYRENLRTEQYDLKQLNQPDFVGAIERNGYVLFFFRELSMEVMNFGKAVYSRVARVCKNDRGGPYSHGKSWTSFLKARLNCSVPGEFPFYFDEIQAISPIVESGSKSLIYAVFTTSVNAIPGSAVCAFNVDDILAAFDGEAAAAAAAAAAAAAAAAAAVPKPRPGQCVEDSRTLTSIAVNFIKNHPLMEEAVPAVHGRPLLTKVNLHHRLTAIAVHPQVKSLSGAYYDVIYSGTDDGKVTKFINILSTHPNSTVDRLKTVVISEMQVLPLGTPIRELVISTSKNSLVVVSDGSLVSVPLHHCSHIVDCLGCLSLQDPICAWDLQTHECKNLATSQHKFGTKTYLQSLNSTKKAAALLCPHIPRDAPGAETVSFVTMAPPPTEEQKLLYSNVGSSQGNQPSLEQQPTGGDDFGLNKITLTSMDPDDIMPNLNDPQKSTASVDEIKYASTPS
notes: Semaphorin 1b (Sema1b), Drosophila melanogaster, ectodomain, residues 37–659, Exβ1‐β2 loop 350–367 replaced by alanines; synthetic clone (Invitrogen-GeneArt); also called Sema1b‐mutB; Sema1b‐mutant B; source: HEK 293T, transient transfection, purified (HisTrap, SEC)
In the case of B1, the binding result in the test with PlexA1‐4‐mVenus is recorded as “binds”.

B2: Sema1b1‐2 (domain or fragment, Drosophila melanogaster, UniProt Q7KK54 37-602, looked up)
chain: DVKPDLQTKQDKVLAHFIGNSTDYFKILDHNDEFVLVGAKDVIYNVSLNGLKEIARLEWHSTDADRELCALKGKHEWDCHNYLRVYALRPNGEVLLCGTNSYKPRCRHYTPVEVSSEEAGSAGHAHAMRYEVSRDVEAQGLCPYSPAHNSTYAFADGHLYSATVADFSGGDPLIYRENLRTEQYDLKQLNQPDFVGAIERNGYVLFFFRELSMEVMNFGKAVYSRVARVCKNDRGGPYSHGKSWTSFLKARLNCSVPGEFPFYFDEIQAISPIVESGSKSLIYAVFTTSVNAIPGSAVCAFNVDDILAAFDGEFKSQKDSQSHWLPVEREQVPKPRPGQCVEDSRTLTSIAVNFIKNHPLMEEAVPAVHGRPLLTKVNLHHRLTAIAVHPQVKSLSGAYYDVIYSGTDDGKVTKFINILSTHPNSTVDRLKTVVISEMQVLPLGTPIRELVISTSKNSLVVVSDGSLVSVPLHHCSHIVDCLGCLSLQDPICAWDLQTHECKNLATSQHKFGTKTYLQSLNSTKKAAALLCPHIPRDAPGAETVSFVTMAPPPTEEQKLLYSNVGS
notes: Semaphorin 1b (Sema1b), Drosophila melanogaster, domains 1-2 (sema, PSI), residues 37–602; also called Sema1b sema-PSI fragment; source: HEK 293T, transient transfection, purified (HisTrap, SEC); for crystallisation made with kifunensine and treated with endoglycosidase F1
On to B2, for which, in the test with PlexA1‐4, the “stoichiometry N” value came out at 1.

Broadly, the stoichiometry N is a count of units in the complex or per binding partner.
